Measured values: patent US10889805B2, “Intestinal epithelioid cells” (National Institutes of Biomedical Innovation, Health and …, priority 2015, dated 2021)

Experiments:
ANPEP = ANPEP expression by quantitative real-time RT-PCR in cells differentiating from human iPS cells to enterocyte-like cells; type: cell-based; conditions: compound added with BIO and DAPT, 5 days culture; versus control without the compounds; FIG. 2B
Procedure: (§1) The definitive endoderm cells generated from the human iPS cell line (Tic) by the method described in Example 1 above were further cultured for 15 days using the medium 3. During a period from day 4 to day 19 after the initiation of differentiation induction, BIO (5 μM) and DAPT (10 μM) were added to the culture system. Simultaneously with the addition of the BIO and the DAPT, the cells were further cultured for 5 days using the medium 3 supplemented with any one of phorbol-myristate-acetate (PMA), transforming growth factor β1 (TGEβ1), Wortmannin, Noggin, SB431542, Follistatin, EGF, R-spondin1, Pentagastrin, or Wnt3a (FIG. 2A and FIG. 3A).
(§2) With regard to the measurement of the enterocyte markers ANPEP and VILLIN, each of the enterocyte markers was measured by a quantitative real-time RT-PCR method using SYBR Green gene expression assays (APPLIED BIOSYSTEMS). […] Thus, high expressions of ANPEP and VILLIN were found when the cells were cultured in the system containing SB431542, EGF, or Wnt3a.
(§3) The quantitative real-time RT-PCR was performed by the following method. […] A quantitative real-time RT-PCR method using SYBR Green gene expression assays (APPLIED BIOSYSTEMS) was performed, and quantification was performed with STEPONEPLUS real-time PCR System (APPLIED BIOSYSTEMS).

VILLIN = VILLIN expression by quantitative real-time RT-PCR in cells differentiating from human iPS cells to enterocyte-like cells; type: cell-based; conditions: compound added with BIO and DAPT, 5 days culture; versus control without the compounds; FIG. 3B
Procedure: as §1, §2, §3

B1: Wnt3a (protein, UniProt P56704 19-352, looked up)
Protein Wnt-3a: SYPIWWSLAVGPQYSSLGSQPILCASIPGLVPKQLRFCRNYVEIMPSVAEGIKIGIQECQHQFRGRRWNCTTVHDSLAIFGPVLDKATRESAFVHAIASAGVAFAVTRSCAEGTAAICGCSSRHQGSPGKGWKWGGCSEDIEFGGMVSREFADARENRPDARSAMNRHNNEAGRQAIASHMHLKCKCHGLSGSCEVKTCWWSQPDFRAIGDFLKDKYDSASEMVVEKHRESRGWVETLRPRYTYFKVPTERDLVYYEASPNFCEPNPETGSFGTRDRTCNVSSHGIDGCDLLCCGRGHNARAERRREKCRCVFHWCCYVSCQECTRVYDVHTCK
notes: humoral factor added to the culture system
expression of ANPEP (ANPEP): high value
expression of VILLIN (VILLIN): high value
